Source: the NTF2 design screens of Basanta et al. (2020)

Test: protease stability score; higher = more stable; yeast display proteolysis, trypsin and chymotrypsin;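 also: relative to predicted unfolded state with 0 unfolded-like and 1 meaning tenfold more protease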

Sequence | protease stability score
SEIKENLHRFFERWQEVLRTGDERHIRDMADPNVRLDVNGKEIHGRELFANWIREHIERVDHISVHIHDMDIYGNKAKIRGELELDQGDKKHHLDLEIVTTKVDGKWILRSVHVR | 2.12
SEINERTERLMKWLLHAILTGDEDLLSTLADPNVRVIVGDKSVIGMESWYRLFEEELRHLGIKHMQLDPRHVDTQGDKARVETRLRVWVDGVELTHETRLHLDVVNGRITKISIRIH | 1.16
SEIQDISDLAFELIWRSLNTGDEHMLLELLDPDARTHVNGKTFHGRESAVHLFRYLLTLMGIDHIHIEDFKIEFQGDKVIIRMTTRSHQGDKEFHTRFLIIVRKVDGRWINEEISIHVE | 0.937
SEIQHELSEMMKIVIHQFLTGDEEEFRHLVDPNVKFIFNGRLLIGWKSLSDFLKEHLERVDHWHVEIKRVRVYDGRLDISGRLRLVQGDKEHNLDVRMHLETIDGKITSVEIRVH | 1.28
SEIREETQRVIEEFLRNHKTGDESLFHELADPNARLHFHQGDKRLDFIGREHVLEFWSRVSKELGVDHVELKDHKLQGDKMILHIESEVNGRRMIIIDISDKIDGRWVLHTLHIHVE | 0.466
SEIWHLAENLSHLWMHKILTGDEDSIRNLLDPNARVHVNGKEVHGREETVKFMRHRVDEMGVDHMHFELKRFEVQGNYAIHHGTLIIHVDGREIRIESTIHLLKVNGRWLITDSSER | 0.845
SEKDDFLEQLQKLWHEILVTGDEHRLKKLADPDMRFIYGDFESIGREEFLQMMRDMLREIRITHIELRTFDAYDGQLIILTTQHVSIGDKRIELTVHLFWIKVDGKWKLRRLKFE | 1.79
SEKDDHALRVLEEYLHLFLTGNEEVMERLVDPHVRFIYGDKEFHGRELMIRWIREEREQYDHIHWEIRHFESQGDKAHSEVELRIRQGDKRIHVDMHIHIEVVNGRWKRIEVRER | 1.78
SEKDELLDEILEKLRHDVETGNERLIRKNLDPHVKTDFNGRELHGMDLALRVWREHHEKVKNIRLEIKSVESVDGVVIIHMHVEIDGRHLDVILRWFVVNGRVKSVEIEIK | 0.232
SEKDERVHELLRHVEHALRTGDWEEMVKLADPHVRVIFNGKTLHGREMMNRFWEHFGADHIRIRDEDDYNGVVIVHIETVVGDKHHHVHIISEKIDGKWTMRELSIE | 0.933
SEKDQALTEMLEIFLQVHRTGNEEDMHRLADPNARSVYNGQDLHGWEHVFNIMRRIDHIHHVTVKRVEYFDGRVSLDGHINIEIGDKSYHIDISISLRKVDGQWHIESIEFI | 0.721
SEKDREMEHFAKILISNLVTGDEEEIFRMADPHYRYQQGDKRIHGREEWRQWLREERERVDHIEFKIHRVEQQGEKIHLDWEIQIEIGNYEIKDKTTIIFIVVDGRLKQIEVRHH | 0.786
SEKEDIERKWAERTLETIETGDEHTRRELLDPHVRIIINGKDHHGREFAEEEWRRLGVDHFRTHEYEIQGNFLHVRGEMEIDGKRVEVILNFTIVDGRIKQIEMVYL | 2.03
SEKEEDITRFITMWARYLVTGDEDRSRELLDPSVKMHIGEKNLIGREKLLEFVHRMWRRVDHIHIHFHTIDIQGDKLKVDFEIELRQGDKSDSIRTSMIVDKVDGRWILHKITME | 1.74
SEKEEDLRRAEQDFLREMETGDEHLTSELADPHVRIDIGDKVYHGREFWSKFVRRVKNATIQITHRQYQGDKLWLDGILNVDGRNIRMLVIIHKIDGVWVFKYVDIH | 2.27
SEKEEELHRALRLWLHAWETGDFHTITKLLDPHARSDVNGVELHGREEISRHHRELRTHDMRIRDEKVHMQGDYLIIILHIHTDVQIGDKRIETDLLIIIIHVKVNGRWSLRSISLEFR | 0.035
SEKEEHLHELTRLLVEWFITGDEEDNLEQADPHVRMILIVDGRIIERHGREKLYEEAHRHLKRLGIDHYRIKHVDIQGEKVKINGQLEFNGVIYDARLTFVVINGKLHQEYRSEE | 1.64
SEKEEISRRLLELWLKADATGDEKLLLKLMDPDVRIDVDGVENHGMELVTEFLREERDRIDHKIIEIKEMRVVGDKVHMDIRINIEVNGKENETRVELRLEIIDGKIRSVKIIKR | 0.733
SEKEELDQKFIEDYIRHLLTGDFESLTKMADPNVRLSIDGQNHHGRENFERFAFEWIEKYKNVRIHVRDVHVVDGQAHIIMTLDINGKTREVHIEVFIVNGRIKSNELRYR | 1.36
SEKEEQAFRLFKDIVRSMKTGDEDRLHELFDPNVRMDFNGVESHGRELALEVIRIVWREIRIKNIEVHHIEVIGNYVRIDSRLDGRYDGRRIILEMHVQLVKVDGQWIVHNIEIK | 2.12
SEKEEQARKLAKDWSHDTDTGDFKSIFDLIDPDVRVEIGDKRFVGWELVVKWHEHHRHEFGVTQIRHRVDDMELQGEKVIVRGTLIYDGVDFKVHLILEVINGRIRRVEIRIE | 1.04
SEKEERALELIKRFWESELTGNEDWLRHLADPDYLYILLIDGKEHNFHGMETWYEKINRIKGVQIDHLEIRHENVIGDKVEIDGRMDITVNGKRIDKRVELQYSVVDGRFKSVKITNI | 0.809
SEKEEVLREHARRVTEWWLTGDWEEFMKNMDPNARLQIGDKTSHGREEMYRVLKEIEHRLGVDHIEIKDEKVFNGRNHLDTRLHIGDKSINIRIHIDFVNGRLKFVRIEVD | 1.18
SEKEHIMRRASQLIRDYLITGDWRSLEKLIDPNAQFEVNGRHIHGREEVSRIYLQHLNELGVERIDYIERDSDMQGEKVHTYGDLHVNGVTFHVIIFVLKIDGRWTIKKEIWSDK | 1.15
SEKEKDSRIAIELSLKLVLTGNPEMNRELVDPHARVEVGEKEYHGRDWVRYQLELLGIDHFEIHHVDMYGEYVDVTLELRVGDKSFRLILHLEKIDGRWIVRKVHVD | 2.14

Sequence | protease stability score
SEKEKILEHFSELWYRLFRTGDEDTLHRMFDPDYRLIYGDKESHGRRLVWIMIAELRIHDWRLRRYHVQGDKAHFDVEVTGEFNGRREHNREEIIITVIDGRATEVEIRID | 0.54
SEKEKLMHDIIEKYMRNLETGNEEEYAKLADPNTRLHYGNKHRVGWKEIVHTLRHWRIHIRDSEIDSIHNIDGQAFVKGKRKGEINVDGVNIDTTFDVDIIINVFDGRLKEIEIRIH | 0.068
SEKEKLSKDLTRLLLEIIMTGDWKALSDNMDPEARQDIGDKHIVGREIISQFKMELDEEAGFKHSEIQRIRIIGDKIEMDVHVDQGDKHHTVHIIVIIVNGRIKHVEVRIR | 2
SEKEKLYKDMFRLWAENHRTGNEKKLLEMADPNAQFIFNGREFHGRELIKEEIDEWINRIKNVRVDIHRVEIQGEKIHVITRLHINGQDLETKVELIIVDGQLHLERIHID | 0.759
SEKERLVLEIYWKIIHSRNTGDEDHWEELADPDMKLTINGVEFHGREATSKFFKEHVKRFGWEFHIHVDRINAFDGRVESHVIIHIQVGDKHIEIEMREEYVVINGVLKEIRILDR | 2.1
SEKERMIREMLEETMRSLKTGDEDSIHRLFDPHTRSEIDGKEYHGREEVSKWVRHARIHDFQLEDVRIQGNKAILIGVMHGRVDGRKFTTEVRIFSVKVDGQWVNENLELH | 0.993
SEKETLDQHIARLWVHYWLTGDEDQLHRLADPNVRSIVDGKHVHGMERMLTELKRMRERFDHMHIEIHDIKVFDGVIHIDTTLHVQINGVHRSWESRIIIYLINGRVHSVEIRIL | 1.16
SEKHEDAHRFYEQYLEALRTGDEDLLTELIDPHVKVEIGDKHYHGRDWMIEILRKRKERFPGLKIIIILRRMHIIGDKVFMDVEVRVHQGEKTETHRFEMIVNKINGRWLVDSIHIE | 2.08
SEKHEEVKRALELEVQLLRTGDEDIYANLADPNTRLLFDGVDIIGMEKVMEWLRFIHEHIRIRDLKIRRVRLIDGQVDVDSQIEGHVGDKHINIKHEIVVEKINGRWYIRSRHWH | 1.52
SEKHEHAHRIMEIILRAWETGDEESLRELLDPNVRFIQGDKDVVGREEMSRVLHEFREHIRLKSIHIHDKHAINGVFHLDIRIWGNVNGRDDHIEVNYTVVIVDGKIRDLEVRIH | 1.06
SEKQKLAEHFAKEFIHSLETGNEEFLEHLADPDTRLEVGDKEIHGMHHLSRWLHEHLHRYKNVRWSIEITSIEVQGDKIIIHGTLHLNIDGVEIRELIVIEIDVVNGRVKSEHRDKL | 1.38
SEKRQEERKMLELIEHYWQTGDFELLRELADPDTKVRIGDKERHGWEAYIEILRTLGADHMSIRDQKTVGDYVILHIDIRIGDKRYETTLVSEKFDGRWILRRSEFR | 1.16
SEKTHEFQKLYHEWIRVEWTGDFHMLSHMADPNTRVELIINGRTVERIGREDMIELVRRLKHEIRFHDFDIKRVRIQGEKIYADTHEDGEINGQRRETDAKLELDVYNGKIESVFWYIE | 1.13
SELDDHMRRIMDHYIEDLVTGNEDRQQKLADPNVRVIIWQGDKIYHLHGREEWVKALRELRWHEIHVRHREPVNGKTHVDTEVDGEINGRRHRHRVHLTLLVVDGKVKLVEFDHH | 1.37
SELDEDFRHMVELFAFHMLTGDEHEVHRLADPHYRYEQGDKNIIGRDEWIRFLREIRIHVNSIHIRRLDYVGDKIEADVHFDVLIHVNGVRIRHRHDSHLFWEKVDGRWVLHSVRVL | 1.36
SELDEDSEEAVREDIETIKTGNEEMFKRLVDPNARTDFNGKELVGREAVLHFWTMILKTMGVDHVHIEEVRIFNGRLIMHHTIHVGDKFIEVILFSEKFNGKWQIKEIEIR | 0.053
SELDEEAEEALRITFEMLITGDWEFLNHYVDPDAKLNIGDKEHHGRETVITFVKEISRKLGIKVIRFRHIEVQVFNGKVDIHIHGVVEWNGRREEFRIIIILHKIDGQWHIREMRVHIR | 2.4
SELDELANFANELFWELHKTGDEEIFNHYADPHMRYEIDGRDIHGMEVFTKHLRRIKNLTLHSIHVHDEKSQGEKFIFDGNVVGRVNGKEFDTRVRLELTVINGRVHSIILRRH | 1.41
SELDENVKRITDIFIHAILTGDEHKIRKLLDPHVRTVVDGVEYIGREWFAEWVKHMRIDDHRIKTIEIRNQGDYAHVHIHGRTLGEYDGKHSTVNMFIHMHFVKFDGKWFVHELNVHII | 2.06
SELDEYMHRMMKWILEEEITGDEERFLHLADPHVRSRIDVGEWKWDHHGRDAIRVYREQVDHITHVKVSNFHVQGDKAISDVHEEVRVGDKHVIRRIEIIVIVIDGKVHSIELEIK | 0.357
SELDHAAEHLYRLFYHLERTGDEETLMDNMDPNARNEQGEFEYHGREFIEWVSEHLGINVIRVKRVDLRVINGRMILDIDYRVHIGDKTIQRHIHVVINKVNGKWIVEKLRIEWR | 0.79
SELDHLTKHAMELWLRLLETGDEHSEHRLADPNVRLDVNGKELHGMEEILEHLSRLGIKVFRVKDTELVGNKLHLIGELEFDGKRVETHVIAWKINGRWHLHRREIR | 1.57
SELDKVAEEHMEHFFHLYRTGDEDMTHELLDPHVRVSINGVETVGRELATKEVIDWVRKVKNVKTHIHHIEKINGKVIVDTRIHINGVDFRLVIWADKVNGRWHIREMEIR | 1.36
SELDRDVEHVLKELAKAMRTGDEEMLHDMIDPNARMIVDGKNLHGREQIWKFFTELRVDSRRYEVKHSEIQGNKLEIDGRTRIIIIVNGREIDRETHTEIILLKINGKWLMHSVRIE | 1.07
SELDTLVEEVAEIIVKYLITGDEDSLLKMLDPNMRTDINGREIHGREVTHEFLRQEKERLGVSRIQMRLESFRVQGDKIIIHGTLHYNGKDFEVIVIIIVWNGRIREIRIEIR | 1.4
